# Experimental data: patent US8106168B2, “Metalloproteinase binding proteins” (Dyax Corp., priority 2005, dated 2012)
# Biological target: MMP-14 (Homo sapiens, UniProt P50281)
# Test: Selection and phage ELISA screening of anti-MMP-14 Fabs
# Type: binding
# Conditions: Fab from FAB310 phage display library
# How it was run: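 Phage ELISA screened 95 clones from each of rounds 2 and 3 against biotinylated MMP-14 (1 μg/ml) captured on streptavidin, in TRIS/CaCl2/NaCl pH 7.5. The clones came from Fab library selections on biotinylated MMP-14, either free or TIMP-2-complexed (500 nM round 1, 100 nM later rounds). Elution used 2.5 μM TIMP-2 followed by TEA.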
row,Molecule,bind to human MMP-14
1,"M0032-B09: Fab that binds human MMP-14; DNA LV SEQ ID NO: 22, HV SEQ ID NO: 23 (antibody, V domains shown, Synthetically generated oligonucleotide) VH: EVQLLESGGGLVQPGGSLRLSCAASGFTFSIYKMVWVRQAPGKGLEWVSSIGSSGGHTRYADSVKGRFTISRDNSKNTLYLQMNSLRAEDTAVYYCARAPYYYYMDVWGKGTTVTVSS VL: QDIQMTQSPSSVSASVGDTVTITCRASQGISTWLAWYQHKPGKAPKLLIYAGPSLQSGVPSRFSGSGSGTEFTLTISSLHPEDFATYYCQQLNHYPMTFGQGTRLEIK",bind to human MMP-14
2,"M0041-C11: Fab that binds human MMP-14; DNA LV SEQ ID NO: 110, HV SEQ ID NO: 111 (antibody, V domains shown, Synthetically generated oligonucleotide) VL: QDIQMTQSPSSLSASVGDRVTITCRASQRIGSYLNWYQQNSGKAPRLLIYGASNLESGVPSRFSGRGSGTDFTLTISSLQPEDFATYYCQQSNSTPHTFGQGTKVEIK VH: EVQLLESGGGLVQPGGSLRLSCAASGFTFSQYPMSWVRQAPGKGLEWVSSIGPGGWTWYADSVKGRFTISRDNSKNTLYLQMNSLRAEDTAVYYCARTATRIFGVVIMGRAFDIWGQGTMVTVSS",bind to human MMP-14
3,"M0041-H11: Fab that binds human MMP-14; DNA LV SEQ ID NO: 120, HV SEQ ID NO: 121 (antibody, V domains shown, Synthetically generated oligonucleotide) VL: QSELTQDPAVSVALGQTVRITCQGDSLRSYYASWYQQKPGQAPVLVIYGKNNRPSGIPDRFSGSSSGNTASLTITGAQAEDEADYYCNSRDSSGNHVVFGGGTKLTVL VH: EVQLLESGGGLVQPGGSLRLSCAASGFTFSMYPMNWVRQAPGKGLEWVSSISSSGGWTKYADSVKGRFTISRDNSKNTLYLQMNSLRAEDTAVYYCARVFFGYDSSGYPYYYYGMDVWGQGTTVTVSS",bind to human MMP-14
4,"M0042-B07: Fab that binds human MMP-14; DNA LV SEQ ID NO: 122, HV SEQ ID NO: 123 (antibody, V domains shown, Synthetically generated oligonucleotide) VL: QDIQMTQSPLSLPVTPGEPASISCRSSQSLLHSNGYNYLDWYVQKPGQSPQLLIYLGSGRASGVPDRFSGSGSGTDFTLKINRVEAEDVGVYYCMQALQTPWTFGQGTKVEIK VH: EVQLLESGGGLVQPGGSLRLSCAASGFTFSPYSMFWVRQAPGKGLEWVSVIYPSGGGTIYADSVKGRFTISRDNSKNTLYLQMNSLRAEDTAVYYCARSRESCDADTCYQYFQEWGQGTLVTVSS",bind to human MMP-14
5,"M0041-D03: Fab that binds human MMP-14; DNA LV SEQ ID NO: 112, HV SEQ ID NO: 113 (antibody, V domains shown, Synthetically generated oligonucleotide) VL: QDIQMTQSPSSLSASVGDRITVTCRASQSITNYLNWYQQKPGKAPKLLIYAASTLQSGVPSRFSGSGSGTDFTLTISRLEPEDFAVYYCQQYGSSPTFGQGTKVEVK VH: EVQLLESGGGLVQPGGSLRLSCAASGFTFSFYNMTWVRQAPGKGLEWVSSIYSSGGNTDYADSVKGRFTISRDNSKNTLYLQMNSLRAEDTAVYYCARDSLSHYYYGMDVWGQGTTVTVSS",bind to human MMP-14
6,"M0041-B11: Fab that binds human MMP-14; DNA LV SEQ ID NO: 108, HV SEQ ID NO: 109 (antibody, V domains shown, Synthetically generated oligonucleotide) VL: QSVLTQDPAVSVALGQTVRITCQGDSLRSYSASWYQRKPGQAPLLVIYRKTNRPSGIPDRFSGSSSGNTASLTITGAQAEDESDYYCNSRDSSGNHLFGGGTKLTVL VH: EVQLLESGGGLVQPGGSLRLSCAASGFTFSQYSMHWVRQAPGKGLEWVSSIVPSGGMTAYADSVKGRFTISRDNSKNTLYLQMNSLRAEDTAVYYCAKISRGNDAFDIWGQGTMVTVSS",bind to human MMP-14
7,"M0041-E11: Fab that binds human MMP-14; DNA LV SEQ ID NO: 116, HV SEQ ID NO: 117 (protein, Synthetically generated oligonucleotide) chain 1: QDIQMTQSPSSLSAFVGDRVIITCRASQDISVYVNWYQQSSGKAPKLLIYGASSLQSGVPSRFSGSGSGTDFTLTISSLQPEDFASYFCQQSYNLPFTFGGGTNVQIK chain 2: EVQLLESGGGLVQPGGSLRLSCAASGFTFSQYNMQWVRQAPGKGLEWVSGIVPSGGWTPYADSVKGRFTISRDNSKNTLYLQMNSLRAEDTAVYYCARGVRYGLDYWGQGTLVTVSS",bind to human MMP-14
8,"M0043-A09: Fab that binds human MMP-14; DNA LV SEQ ID NO: 126, HV SEQ ID NO: 127 (antibody, V domains shown, Synthetically generated oligonucleotide) VL: QSVLTQPPSVSKDLRQTATLTCTGNSNNVGYQGAAWLQQHQGHPPKVLSYRNNNRPSGISERFSASRSGNTASLTITGLQPEDEADYYCSAWDSSLTAWVFGGGTKLTVL VH: EVQLLESGGGLVQPGGSLRLSCAASGFTFSFYDMTWVRQAPGKGLEWVSSIWSSGGVTDYADSVKGRFTISRDNSKNTLYLQMNSLRAEDTAVYYCTRASSGYYDAFDIWGQGTMVTVSS",bind to human MMP-14
9,"M0041-H09: Fab that binds human MMP-14; DNA LV SEQ ID NO: 118, HV SEQ ID NO: 119 (antibody, V domains shown, Synthetically generated oligonucleotide) VL: QDIQMTQSPGTLSLSPGERATLSCRASQSLSGDYLAWYQQKIGQAPRLLIFGASRRPTGIPDRFSGSGSGTDFALTISRLEPEDFAVYYCQQYGSLITFGQGTRLEIK VH: EVQLLESGGGLVQPGGSLRLSCAASGFTFSVYEMTWVRQAPGKGLEWVSGIGSSGGMTFYADSVKGRFTISRDNSKNTLYLQMNSLRAEDTAVYYCARIRYSGSYGWHYMDVWGKGTTVTVSS",bind to human MMP-14
10,"M0032-B07: Fab that binds human MMP-14; DNA LV SEQ ID NO: 20, HV SEQ ID NO: 21 (antibody, V domains shown, Synthetically generated oligonucleotide) VH: EVQLLESGGGLVQPGGSLRLSCAASGFTFSPYLMHWVRQAPGKGLEWVSSIYPSGGITQYADSVKGRFTISRDNSKNTLYLQMNSLRAEDTAVYYCARFFPSHRDYTAFDTWGRGTLVTVSS VL: QSVLTQEPSLTVSPGGTVTLTCASNTGAVTSGSYANWFQQKPGLTPRALIYSGTNKYSWTPARFSGSLFGGKAALTLSGVLPEDEAEYYCLVYYGGVWVFGGGTKLTVL",bind to human MMP-14

# Now from value to molecule:
row,bind to human MMP-14,Molecule
1,bind to human MMP-14,"M0043-G01: Fab that binds human MMP-14; DNA LV SEQ ID NO: 132, HV SEQ ID NO: 133 (antibody, V domains shown, Synthetically generated oligonucleotide) VL: QDIQMTQSPSAMSASVGDRVTITCRASQGISSWLAWYQQKPGKAPKLLIYAASSLQSGVPSRFSGSGSGTDFTLTISSLQPEDFATYYCQQANSFPLTFGGGTKVEIK VH: EVQLLESGGGLVQPGGSLRLSCAASGFTFSFYSMHWVRQAPGKGLEWVSGISSSGGVTKYADSVKGRFTISRDNSKNTLYLQMNSLRAEDTAVYYCARARSTRGFDYWGQGTLVTVSS"
2,bind to human MMP-14,"M0044-B03: Fab that binds human MMP-14; DNA LV SEQ ID NO: 136, HV SEQ ID NO: 137 (antibody, V domains shown, Synthetically generated oligonucleotide) VL: QDIQMTQSPSSVSASVGDRVTITCRASQNIYSWLAWYQQRPGKAPKLLIYAASSLHSGVPSRFSGSGSGTDFTLTISSLQPEDFATYYCQQAKSFPVTFGGGTKVEIK VH: EVQLLESGGGLVQPGGSLRLSCAASGFTFSQYHMMWVRQAPGKGLEWVSSIGSSGYTKYADSVKGRFTISRDNSKNTLYLQMNSLRAEDTAVYYCAGAVAGTGAFDYWGQGTLVTVSS"
3,bind to human MMP-14,"M0044-D08: Fab that binds human MMP-14; DNA LV SEQ ID NO: 138, HV SEQ ID NO: 139 (antibody, V domains shown, Synthetically generated oligonucleotide) VL: QYELTQPLSVSVALGQTASISCWGHNIRIKNVHWYQQKPGQAPVVVMYIPERFSGSTSGNTATLTISGAQAGDEADYYCQVWDSSTVVFGGGTKLTVL VH: EVQLLESGGGLVQPGGSLRLSCAASGFTFSKYPMSWVRQAPGKGLEWVSSIWPSGGHTFYADSVKGRFTISRDNSKNTLYLQMNSLRAEDTAVYYCAKNPGLRYAFDNWGRGTMVTVSS"
4,bind to human MMP-14,"M0043-F01: Fab that binds human MMP-14; DNA LV SEQ ID NO: 130, HV SEQ ID NO: 131 (antibody, V domains shown, Synthetically generated oligonucleotide) VL: QSALTQPASVSGSPGQSITISCTGTSSDIGAYRYVSWYQQRPGKAPKLMIFDVTKRPSGVSNRFSGFKSGNTASLTISGLQAEDEADYYCSSFTSGSTFVFGTGTKVTVL VH: EVQLLESGGGLVQPGGSLRLSCAASGFTFSKYSMYWVRQAPGKGLEWVSSISSSGGYTAYADSVKGRFTISRDNSKNTLYLQMNSLRAEDTAVYYCAIPWGSGSSWGQGTLVTVSS"
5,bind to human MMP-14,"M0043-C03: Fab that binds human MMP-14; DNA LV SEQ ID NO: 128, HV SEQ ID NO: 129 (antibody, V domains shown, Synthetically generated oligonucleotide) VL: QDIQMTQSPASLYLSPGERATLSCRASQSVSSNLAWYQQKPGQAPRLLIYGASTRATGIPARFSGSGSGTEFTLTISSLQSADFAVYYCQQYDNWPPLTFGGGTKVEIK VH: EVQLLESGGGLVQPGGSLRLSCAASGFTFSYYAMDWVRQAPGKGLEWVSSIGSSGGDTVYADSVKGRFTISRDNSKNTLYLQMNSLRAEDTATYYCARDPRQPGVFDYWGQGTLVTVSS"
